Experimental data: patent US20250289896A1 (ANALYTICAL BIOSCIENCES SHANGHAI, published 2025)
Like-named read-outs stand apart in the source and are kept apart here.

T1: mCCR8 (UniProt P56484 1-353, limits assumed)
T1 construct: whole, on cells; also called 293T-mCCR8
T1 sequence (looked up): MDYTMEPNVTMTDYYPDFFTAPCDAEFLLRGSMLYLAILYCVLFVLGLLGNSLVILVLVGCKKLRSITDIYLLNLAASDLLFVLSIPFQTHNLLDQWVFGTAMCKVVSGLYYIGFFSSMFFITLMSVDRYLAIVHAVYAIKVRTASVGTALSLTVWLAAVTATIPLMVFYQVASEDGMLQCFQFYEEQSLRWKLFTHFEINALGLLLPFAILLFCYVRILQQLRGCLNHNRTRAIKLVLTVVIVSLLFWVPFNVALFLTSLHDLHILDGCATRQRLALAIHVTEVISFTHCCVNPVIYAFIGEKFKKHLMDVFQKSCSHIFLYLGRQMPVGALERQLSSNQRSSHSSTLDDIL

B1: ABC1183 (antibody, human IgG1, kappa, V domains shown)
VH: EVQLLESGGGLVQPGGSLRLSCAASGFSFSDYYMAWVRQAPGKGLEWVASISNAGTKTYYGDSVKGRFTISRDDSKNTLYLQMNSLRAEDTAVYYCVRQDLYYGRNQYWYFDFWGRGTLVTVSS
VL: DIQMTQSPSSLSASVGDRVTITCKASQSVGSNVDWYQQKPGKSPKLLIYKTSSRFTGVPSRFSGSGSRTDFTLTISSLQPEDFATYYCVQSNSYPYTFGAGTKLELKR
notes: Humanized format of ABC822
B2: ABC822 (antibody, human IgG1, kappa, V domains shown)
VH: EVQLVESGGGLMQPGRSLKLSCAASGFSFSDYYMAWVRQAPKKGLEWVASISNAGTKTYYGDSVKGRFTISRDDAKSTLYLQMNSLRSEDTATYYCVRQDLYYGRNQYWYFDFWGPGTMVTVSS
VL: IVMTQSPTSMSKSVGDRVTMNCKASQSVGSNVDWYQQKTGQSPKLLIYKTSSRFTGVPDRFTGSGSRTDFTFTISSMQAEDLALYYCVQSNSYPYTFGAGTKLELKR
B3: ChB1-AF (antibody, human IgG1, kappa)
heavy: not shown
light: DIVMTQAAPSVVVTPGESVSISCRSSKSLLHSNGNTYLYWFLQRPGQSPQLLIYRMSNLASGVPDRFSGSGSGTAFTLRISRVEAEDVGVYYCMQHVEYPFTFGGGTKVQIKRTVAAPSVFIFPPSDEQLKSGTASVVCLLNNFYPREAKVQWKVDNALQSGNSQESVTEQDSKDSTYSLSSTLTLSKADYEKHKVYACEVTHQGLSSPVTKSFNRGEC

What was measured:
[1] = target: T2, cynomolgus macaque CCR8 (cynomolgus macaque, UniProt G7NYJ2 1-355); assay: cell-based or functional assay
[2] = target: T2, cynomolgus macaque CCR8; assay: flow cytometry, 293T cells overexpressing cynomolgus CCR8
Experimental: (§1) Binding specificity of the anti-CCR8 antibodies (mAbs) was tested by FACS using several cell lines. […] The binding titration of the anti-CCR8 antibodies to CCR8 transfectants was performed by serial dilution of antibodies. The diluted antibody (50 μl) in flow cytometry buffer (PBS, 0.5% BSA, 1 mM EDTA) was incubated with cells (50 μl) at a concentration of 2 million cells/ml on ice for 30 min. After two washes with flow cytometry buffer, bound antibody was detected with Alexa647-labeled F(ab′)2 fragment goat anti-human IgG (Jackson ImmunoResearch #709-606-149) (1:500 dilution) for 20 minutes on ice. The fluorescence was measured on a Cytek Aurora cytometer, after two washes with flow cytometry buffer. The data were analyzed with GraphPad Prism 8.0 software to determine EC50 values.

[3] = target: T3, Human CCR8 (C-C chemokine receptor type 8) (human, UniProt P51685 1-355); assay: flow cytometry, Hut78 cells (endogenous human CCR8)
T3 construct: overexpressed on HEK293T (293T-hCCR8), Jurkat-hCCR8 and CHEM1-CCR8 cells; also called hCCR8
Experimental: as §1

[4] = target: T1, mCCR8; assay: flow cytometry, 293T cells with mCCR8
Experimental: as §1

[5] = target: T3, Human CCR8 (C-C chemokine receptor type …); assay: cell-based or functional assay
[6] = target: T3, Human CCR8 (C-C chemokine receptor type …); assay: cell-based or functional assay; remark: listed apart in the source
[7] = target: T3, Human CCR8 (C-C chemokine receptor type …); assay: flow cytometry, 293T cells overexpressing human CCR8
Experimental: as §1

[8] = target: T3, Human CCR8 (C-C chemokine receptor type …); assay: as above; remark: listed apart in the source
Experimental: as §1

[9] = target: T3, Human CCR8 (C-C chemokine receptor type …); assay: flow cytometry, Hut78 cells (endogenous human CCR8); remark: listed apart in the source
Experimental: as §1

[10] = target: T2, cynomolgus macaque CCR8; assay: flow cytometry, 293T cells overexpressing cynomolgus CCR8; remark: listed apart in the source
Experimental: as §1

[11] = target: T3, Human CCR8 (C-C chemokine receptor type …); assay: cell-based or functional assay; remark: listed apart in the source

T2 sequence (G7NYJ2 entry or part of it): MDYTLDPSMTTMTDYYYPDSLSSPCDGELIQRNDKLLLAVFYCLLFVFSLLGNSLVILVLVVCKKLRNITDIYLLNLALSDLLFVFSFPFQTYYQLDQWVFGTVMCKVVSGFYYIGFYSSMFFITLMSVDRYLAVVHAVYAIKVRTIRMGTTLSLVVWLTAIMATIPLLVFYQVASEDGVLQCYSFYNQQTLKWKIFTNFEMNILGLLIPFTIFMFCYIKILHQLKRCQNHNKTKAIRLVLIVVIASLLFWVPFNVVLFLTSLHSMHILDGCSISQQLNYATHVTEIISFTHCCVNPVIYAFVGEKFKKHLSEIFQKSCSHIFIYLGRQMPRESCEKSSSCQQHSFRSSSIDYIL
T3 sequence (P51685 whole entry): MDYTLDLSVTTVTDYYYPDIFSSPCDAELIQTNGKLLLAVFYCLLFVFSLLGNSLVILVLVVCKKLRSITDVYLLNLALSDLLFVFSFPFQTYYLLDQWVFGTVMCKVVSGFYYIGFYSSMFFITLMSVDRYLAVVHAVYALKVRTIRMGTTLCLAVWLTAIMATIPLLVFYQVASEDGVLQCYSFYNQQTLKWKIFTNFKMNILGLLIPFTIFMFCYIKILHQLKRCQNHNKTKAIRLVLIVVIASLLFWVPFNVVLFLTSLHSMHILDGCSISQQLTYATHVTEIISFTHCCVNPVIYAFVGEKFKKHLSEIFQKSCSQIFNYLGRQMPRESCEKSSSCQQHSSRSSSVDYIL

Binder	ADCC killing of Jurkat-cynoCCR8 cells, IC50 (pM) [1] [pM]	EC50 [2] [nM]	EC50 [3] [nM]	binding result [4]	ADCC killing of Jurkat-hCCR8 cells, IC50 (pM) [5] [pM]	ADCC killing of Hut78 cells, IC50 (pM) [6] [pM]	EC50 [7] [nM]	EC50 [8] [nM]	EC50 [9] [nM]	EC50 [10] [nM]	ADCC killing of TALL-1 cells, Median EC50 (pM) [11] [pM]
B1	6.15	0.445	4.12	no binding	1.8	7.95	0.373	–	–	–	–
B2	7.19	0.464	2.92	no binding	9.68	6.31	0.269	0.0684	3.16	0.0938	–
B3	–	–	–	–	–	–	–	–	–	–	9.8
